# Measured values from PMC6788708, “Occurrence and stability of hetero-hexamer associations formed by β-carboxysome CcmK shell components” (PLoS ONE, 2019).
# Several values for one entry are separate records, joined by “and”; a condition that tells them apart may be missing. Equal entries are not always repeated.
# B1: CcmK4 (Synechocystis sp. PCC6803), His4 tag removed by TEV protease (natural protein, UniProt P73407 1-112, looked up)
# chain: MSAQSAVGSIETIGFPGILAAADAMVKAGRITIVGYIRAGSARFTLNIRGDVQEVKTAMAAGIDAINRTEGADVKTWVIIPRPHENVVAVLPIDFSPEVEPFREAAEGLNRR
# notes: CcmK4, BMC-H carboxysome shell protein of Synechocystis sp; PCC 6803; In native MS it came from His4-K4 co-expressed with K3-FLAG; The untagged K4 homo-hexamer of the exchange experiment was made from a His4-tagged K4 expressed alone; Residues left after TEV cleavage are in S1 List; also called untagged K4; TEV-untagged His4-K4; source: E. coli BL21(DE3), TALON-purified, tag removed with TEV …
# Legend:
# [1] = biological target: the molecule itself; experiment: native MS; TALON-purified co-expressed samples, tags removed with TEV protease; 150 mM ammonium acetate pH 8; positive-ion native ESI-MS with collision induced dissociation of selected hexamers
# [2] = biological target: the molecule itself; experiment: crystal structure; pIsep-FPLC fractions of His4-CcmK4/CcmK3-FLAG at 2.9 mg/mL; 22% PEG 4000, 0.2 M ammonium sulfate, 0.1 M sodium acetate pH 4.6, 12 C; only CcmK4 found in the crystal
# [3] = biological target: B1; experiment: native MS; TALON-purified co-expressed samples, tags removed with TEV protease; 150 mM ammonium acetate pH 8; positive-ion native ESI-MS with collision induced dissociation of selected hexamers; conditions: both partners purified
# [4] = biological target: T1, CcmK2 (Synechocystis sp. PCC6803), FLAG tag removed by TEV protease (Synechocystis sp. PCC6803, UniProt P72761 1-103); experiment: as above; conditions: both partners purified
# T1 construct: CcmK2, BMC-H carboxysome shell protein of Synechocystis sp; PCC 6803; monomer masses in native MS indicate loss of the first methionine; Residues left after TEV cleavage are in S1 List; source: E. coli BL21(DE3), co-expressed with K1-His4, co-purified on TALON, tag removed with TEV protease; not shown: FLAG, C-terminal, cleaved
# T1 sequence (looked up): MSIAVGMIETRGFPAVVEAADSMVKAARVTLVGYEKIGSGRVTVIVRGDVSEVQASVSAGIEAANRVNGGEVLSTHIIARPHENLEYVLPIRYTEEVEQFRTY
binder,measurement,setting,value
B1,stoichiometry N,[1],6 subunits
"His4-CcmK4 (Synechocystis sp. PCC6803 CcmK4, N-ter His4 tag) (natural protein, UniProt P73407 1-112, looked up, CcmK4, BMC-H carboxysome shell protein of Synechocystis sp; PCC 6803; The crystallised sample came from His4-K4/K3-FLAG; no tag removal is told for it; also called His4-K4; source: E. coli BL21(DE3), co-expressed (pET26b-based plasmid, two or four cassettes), soluble fraction of the lysate; TALON-purified (pIsep-FPLC for crystallisation); not shown: His4, N-terminal, kept) MSAQSAVGSIETIGFPGILAAADAMVKAGRITIVGYIRAGSARFTLNIRGDVQEVKTAMAAGIDAINRTEGADVKTWVIIPRPHENVVAVLPIDFSPEVEPFREAAEGLNRR",stoichiometry N,[2],6 subunits
"CcmK3 (Synechocystis sp. PCC6803), FLAG tag removed by TEV protease (natural protein, UniProt P73406 1-103, looked up, CcmK3, BMC-H carboxysome shell protein of Synechocystis sp; PCC 6803; monomer mass agrees with loss of the first methionine; Residues left after TEV cleavage are in S1 List; also called TEV-untagged K3-FLAG; source: E. coli BL21(DE3), co-expressed with His4-K4, co-purified on TALON, tag removed with TEV protease; not shown: FLAG, C-terminal, cleaved) MPQAVGVIQTLGFPSVLAAADAMLKGGRVTLVYYDLAERGNFVVAIRGPVSEVNLSMKMGLAAVNESVMGGEIVSHYIVPNPPENVLAVLPVEYTEKVARFRT",stoichiometry N,[3],0.2 K3:K4 in the hexamer (1:5) and 0.5 K3:K4 in the hexamer (2:4)
"CcmK1 (Synechocystis sp. PCC6803), His4 tag removed by TEV protease (natural protein, UniProt P72760 1-111, looked up, CcmK1, BMC-H carboxysome shell protein of Synechocystis sp; PCC 6803; monomer masses in native MS indicate loss of the first methionine; In native MS it came from K1-His4 co-expressed with K2-FLAG; Residues left after TEV cleavage are in S1 List; also called untagged K1; source: E. coli BL21(DE3), TALON-purified, tag removed with TEV protease; not shown: His4, C-terminal, cleaved) MSIAVGMIETLGFPAVVEAADSMVKAARVTLVGYEKIGSGRVTVIVRGDVSEVQASVTAGIENIRRVNGGEVLSNHIIARPHENLEYVLPIRYTEAVEQFREIVNPSIIRR",stoichiometry N,[4],0.2 K1:K2 in the hexamer (1:5) and 2 K1:K2 in the hexamer (4:2)
